Source: patent publication US6991790 (Genentech, dated 2006)

Columns and labels:
[1] = target: T1, recombinant preparation of soluble MAC-1 (UniProt P11215 17-1104; P05107 23-700); assay: MAC-1 capture ELISA titer over UV concentration; F5 after three freeze/thaw cycles -70° C. to 5° C.
[2] = target: T1, recombinant preparation of soluble MAC-1; assay: MAC-1 capture ELISA titer over UV concentration; F2 after three freeze/thaw cycles -70° C. to 5° C.
[3] = target: T1, recombinant preparation of soluble MAC-1; assay: MAC-1 capture ELISA titer over UV concentration; F3 after three freeze/thaw cycles -20° C. to 5° C.
[4] = target: T1, recombinant preparation of soluble MAC-1; assay: MAC-1 capture ELISA titer over UV concentration; F1 after three freeze/thaw cycles -70° C. to 5° C.
[5] = target: T1, recombinant preparation of soluble MAC-1; assay: MAC-1 capture ELISA titer over UV concentration; F4 after three freeze/thaw cycles -70° C. to 5° C.
[6] = target: T1, recombinant preparation of soluble MAC-1; assay: MAC-1 capture ELISA titer over UV concentration; F5 after three freeze/thaw cycles -20° C. to 5° C.
[7] = target: T1, recombinant preparation of soluble MAC-1; assay: MAC-1 capture ELISA titer over UV concentration; freeze/thaw study, F2, held at 5° C. (control)
[8] = target: T1, recombinant preparation of soluble MAC-1; assay: MAC-1 capture ELISA titer over UV concentration; freeze/thaw study, F5, held at 5° C. (control)
[9] = target: T1, recombinant preparation of soluble MAC-1; assay: MAC-1 capture ELISA titer over UV concentration; freeze/thaw study, F4, held at 5° C. (control)
[10] = target: T1, recombinant preparation of soluble MAC-1; assay: MAC-1 capture ELISA titer over UV concentration; F1 after three freeze/thaw cycles -20° C. to 5° C.
[11] = target: T1, recombinant preparation of soluble MAC-1; assay: MAC-1 capture ELISA titer over UV concentration; freeze/thaw study, F1, held at 5° C. (control)
[12] = target: T1, recombinant preparation of soluble MAC-1; assay: MAC-1 capture ELISA titer over UV concentration; freeze/thaw study, F3, held at 5° C. (control)
[13] = target: T1, recombinant preparation of soluble MAC-1; assay: MAC-1 capture ELISA titer over UV concentration; F3 after three freeze/thaw cycles -70° C. to 5° C.
[14] = target: T1, recombinant preparation of soluble MAC-1; assay: MAC-1 capture ELISA titer over UV concentration; F2 after three freeze/thaw cycles -20° C. to 5° C.
[15] = target: T1, recombinant preparation of soluble MAC-1; assay: MAC-1 capture ELISA titer over UV concentration; F4 after three freeze/thaw cycles -20° C. to 5° C.

Specific Activity (MAC-1/UV) [1]: 1.09 ratio (MAC-1/UV) | Specific Activity (MAC-1/UV) [2]: 1.13 ratio (MAC-1/UV) | Specific Activity (MAC-1/UV) [3]: 1.08 ratio (MAC-1/UV) | Specific Activity (MAC-1/UV) [4]: 1.03 ratio (MAC-1/UV) | Specific Activity (MAC-1/UV) [5]: 1.06 ratio (MAC-1/UV) | Specific Activity (MAC-1/UV) [6]: 1.09 ratio (MAC-1/UV) | Specific Activity (MAC-1/UV) [7]: 1.14 ratio (MAC-1/UV) | Specific Activity (MAC-1/UV) [8]: 1.14 ratio (MAC-1/UV) | Specific Activity (MAC-1/UV) [9]: 0.98 ratio (MAC-1/UV) | Specific Activity (MAC-1/UV) [10]: 1 ratio (MAC-1/UV) | Specific Activity (MAC-1/UV) [11]: 1.05 ratio (MAC-1/UV) | Specific Activity (MAC-1/UV) [12]: 1.1 ratio (MAC-1/UV) | Specific Activity (MAC-1/UV) [13]: 1.1 ratio (MAC-1/UV) | Specific Activity (MAC-1/UV) [14]: 1.2 ratio (MAC-1/UV) | Specific Activity (MAC-1/UV) [15]: 1.09 ratio (MAC-1/UV)
B1: recombinant humanized anti-CD18 antibody (rhuMAb CD18) (antibody, V domains shown)
VH: EVQLVESGGGLVQPGGSLRLSCATSGYTFTEYTMHWMRQAPGKGLEWVAGINPKNGGTSHNQRFMDRFTISVDKSTSTAYMQMNSLRAEDTAVYYCARWRGLNYGFDVRYFDVWGQGTLVTVSS
VL: DIQMTQSPSSLSASVGDRVTITCRASQDINNYLNWYQQKPGKAPKLLIYYTSTLHSGVPSRFSGSGSGTDYTLTISSLQPEDFATYYCQQGNTLPPTFGQGTKVEIKR
notes: Tested as an F(ab')2 of two light and two heavy chains linked by disulfide bonds, made in E. coli; It was humanized from murine muMAb H52; It says the antibody is directed to the CD18 chain of MAC-1; also called anti-CD18 F(ab')2 antibody; humanized H52 antibody
